According to US20220195047A1 (TCRCURE BIOPHARMA, published 2022):
Numbering of substitutions follows the chain as printed. Blank lines part the entries; values can stand above or below the binder they belong to.

Tests used:
[1] = molecular target: T1, human PD-1 protein (hPD-1) on cell surface of 293T-PD-1 cells (human, UniProt Q15116 25-287); assay: flow cytometry on 293T-PD-1 cells
T1 construct: Human PD-1 expressed in HEK293T cells, either by lentiviral transduction or by the pCMV6-ENTRY PDCD1 cDNA RC210364; also called PDCD1 (RC210364) in HEK293T cells
T1 sequence (Q15116 25-287 limits assumed): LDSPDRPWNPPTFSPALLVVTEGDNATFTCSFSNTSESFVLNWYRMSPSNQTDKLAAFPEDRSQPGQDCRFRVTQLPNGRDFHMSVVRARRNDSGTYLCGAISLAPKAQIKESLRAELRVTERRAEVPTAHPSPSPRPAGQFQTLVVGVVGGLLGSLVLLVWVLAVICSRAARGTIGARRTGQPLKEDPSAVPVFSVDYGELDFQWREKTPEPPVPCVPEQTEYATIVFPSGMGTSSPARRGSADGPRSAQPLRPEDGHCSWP
Experimental: (§1) The cells were then stained with a secondary antibody (APC-anti-Hu IgG Fc for humanized antibodies and FITC-anti-Mouse IgG F(ab′)2 for F02) for 30 minutes (1:50), followed by flow cytometric analysis. The results were analyzed through Prism 7 and Kd values were determined by the program.

[2] = molecular target: T1, human PD-1 protein (hPD-1) on cell …; assay: flow cytometry on 293T-PD-1 cells, 4 C for 60 min, secondary APC-anti-Hu IgG Fc; y axis hPD-1%
Experimental: as §1

[3] = molecular target: T2, recombinant biotinylated human PD-1 (human, UniProt Q15116 25-170, limits assumed, biotinylated (site not stated)); assay: ELISA, antibody coated, biotinylated rhPD-1 titrated, Sav-HRP detection
T2 construct: also called rhPD-1; recombinant human PD-1 protein
T2 sequence (Q15116 25-170 limits assumed): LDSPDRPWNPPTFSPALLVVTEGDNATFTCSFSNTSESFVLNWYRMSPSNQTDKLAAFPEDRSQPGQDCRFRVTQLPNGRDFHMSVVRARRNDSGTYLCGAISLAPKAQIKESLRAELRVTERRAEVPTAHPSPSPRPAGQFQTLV
Experimental: 5 μg/ml of anti-PD1 antibody in 100 μl coating buffer was coated in the microwells at 4° C. overnight. By following the ELISA procedure, a 5-fold serial dilution of recombinant biotinylated human PD-1 was added to the assay plate pre-coated with anti-PD1 antibodies. The bound human PD-1 protein was then detected with Sav-HRP reagent. The results were analyzed through Prism 7 and Kd values were determined by the program.

[4] = molecular target: T1, human PD-1 protein (hPD-1) on cell …; assay: flow cytometry on 293T-PD-1 cells, 4 C for 60 min, secondary FITC-anti-Mouse IgG F(ab')2; y axis hPD-1%
Experimental: as §1

- Kd [1]: 3.69 nM
- EC50 (read off the curve) [2]: ~0.5 µg/mL
B1: Ab5 anti-PD-1 antibody (antibody, V domains shown)
VH: QVQLQQSGAEVKKPGSSVKVSCKASGYTFTNYYLYWVRQAPGQGLEWIGGINPSNGGTNFNEKFRGRVTITADESSTTAYMELSSLRSEDTAFYFCTRRDYNYDGGFDYWGQGTTVTVSS
VL: DIVMTQSPSSLSASVGDRVTITCRASKSVSTSGFNYMHWYQQTPGKAPKLLIYLASNLDSGVPARFSGSGSGTDFTFTISSLQEEDIATYYCFHGRELPLTFGQGTKLQITR
notes: Humanized antibody, detected with anti-human IgG Fc

- Kd [1]: 41 nM
- EC50 (read off the curve) [2]: ~3 µg/mL
B2: Ab4 anti-PD-1 antibody (antibody, V domains shown)
VH: B1 VH
VL: B1 VL with V3Q
notes: as for B1

- Kd [1]: 0.65 nM
- EC50 (read off the curve) [2]: ~0.1 µg/mL
- Kd [3]: 0.32 nM
B3: Ab8 anti-PD-1 antibody (antibody, V domains shown)
VH: B1 VH with Q1E, Q6E, I48M, S76T, T77S, F93V, F95Y, T97A
VL: DIVMTQSPDSLAVSLGERATINCRASKSVSTSGFNYMHWYQQKPGQPPKLLIYLASNLDSGVPDRFSGSGSGTDFTLTIRPLQAEDVAVYYCQHGRELPLTFGQGTKLEIK
notes: as for B1

- Kd [1]: 2.3 nM
- EC50 (read off the curve) [2]: ~0.3 µg/mL
- Kd [3]: 0.68 nM
B4: Ab7 anti-PD-1 antibody (antibody, V domains shown)
VH: B1 VH with K23R
VL: B1 VL
notes: as for B1

- Kd [1]: 3.24 nM
- EC50 (read off the curve) [2]: ~0.4 µg/mL
B5: Ab2 anti-PD-1 antibody (antibody, V domains shown)
VH: B1 VH
VL: B1 VL with V3Q, A64S, E84P
notes: as for B1

- Kd [1]: 0.55 nM
- EC50 (read off the curve) [2]: ~0.07 µg/mL
- Kd [3]: 0.29 nM
B6: h11 anti-PD-1 antibody (antibody, V domains shown)
VH: QVQLVQSGAEVKKPGASVKVSCKASGYTFTNYYMYWVRQAPGQGLEWIGGINPSNGGTNFNEKFKNKATMTVDKSTSTAYMELSSLRSEDTAVYYCTRRDYNYDGGFDYWGQGTLVTVSS
VL: DIVLTQSPATLSLSPGERATLSCRASKSVSTSGFNYMHWYQQKPGQAPRLLIFLASNLASGVPARFSGSGSGTDFTLTISSLEPEDFAVYYCQHGRELPLTFGQGTKLEI
notes: Humanized antibody derived from F02, detected with anti-human IgG Fc; also called hl 1

- Kd [1]: 0.07 nM
- Kd [3]: 0.14 nM
- EC50 (read off the curve) [4]: ~0.01 µg/mL
B7: F02 anti-PD-1 antibody (antibody, V domains shown)
VH: QQPGAELVKPGASVKLSCRASGYTFTNYYLYWVKQRPGQGLEWIGGINPSNGGTNFNEKFRGKATLTVDKSSSTAYMQLSSLTSEDSAVYFCTRRDYNYDGGFDYWGQGSTLTVSS
VL: DIVLTQSPASLAVSLGQRATISCRASKSVSTSGFNYMHWYQQKPGQPPKLLIYLASNLDSGVPARFSGSGSGTDFTLNIHPVEEEDAATYYCQHGRELPLTFGAGTKLELRR
notes: Mouse monoclonal antibody from hybridoma clone #11, detected with anti-mouse IgG F(ab')2; Only the variable domains are tied to F02; also called anti-PD-1 antibody from hybridoma clone #11; clone #11
